Measured values from patent publication US20130216549A1 (NOVLMMUNE S A, published 2013).

T1: NusA-rat IP-10 fusion protein (rat, UniProt P48973 22-98)
T1 chain: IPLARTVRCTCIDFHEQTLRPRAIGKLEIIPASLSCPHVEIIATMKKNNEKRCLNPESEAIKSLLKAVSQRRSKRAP

T2: NusA-cynomolgus IP-10 fusion protein (cynomolgus, UniProt Q8MIZ1 22-98 (rhesus entry))
T2 construct: junction and C-terminal AviTag not spelled out
T2 sequence: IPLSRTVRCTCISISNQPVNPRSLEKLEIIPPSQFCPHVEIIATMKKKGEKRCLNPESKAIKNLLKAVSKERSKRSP

T3: recombinant human IP-10 (Peprotech) (human, UniProt P02778 22-98)
T3 sequence: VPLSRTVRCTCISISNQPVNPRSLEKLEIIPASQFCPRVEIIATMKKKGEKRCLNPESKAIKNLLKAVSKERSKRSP


Key:
[1] = target: T1, NusA-rat IP-10 fusion protein; assay: capture ELISA: NI-0801 coated, NusA fusion protein titrated, detected with anti-NusA antibody, fluorescence
Source text: (§1) Briefly, IP-10 cloned from cDNA isolated from mouse, rat, rabbit and cynomolgus as well as a panel of human chemokines was expressed and purified as described in Example 1.

[2] = target: T2, NusA-cynomolgus IP-10 fusion protein; assay: capture ELISA: NI-0801 coated, NusA fusion protein titrated (CK Conc [M]), detected with anti-NusA antibody, fluorescence
Source text: as §1

[3] = target: T3, recombinant human IP-10 (Peprotech); assay: cell-based or functional assay

Binder | binding result [1] | EC50 (read off the curve) [2] [nM] | Calcium flux IC50 (nM); 10 nM hIP-10 [3] [nM] | Chemotaxis IC50 (nM); 1 nM hIP-10 [3] [nM]
NI-0801 (IgG1-formatted) (antibody, V domains shown) VH: QVQLVESGGGVVQPGRSLRLSCAASGFTFSNSGIHWVRQAPGKGLEWVAVISYDGSNKYYADSVKGRFTISRDNSKNTLYLQMNSLRAEDTAVYYCARLRDNAEYTDYWGQGTLVTVSS VL: NFMLTQPHSVSESPGKTVTISCTGSGGSIASNYVQWYQQRPGSSPTTVIYEDNQRPSGVPDRFSGSIDSSSNSASLTISGLKTEDEADYYCQSYDPLPVWVFGGGTKLTVLG | no binding (tested: about 2.5e-7 M) | ~1 |  | 
CC21R3P1_A2 (scFv format) (scFv, V domains shown) VH: QLVESGGGLIQPGGSLRLSCAASGFSVSDTYMNWVRQAPGKGLEWVSSIYSDDSTYYADSVKGRFTISRDNSKNTLFLQINSLRAEDTAVYYCARDKEYVTSTGGAYYYFYYMDVWGQGTLVTVSS VL: not shown |  |  | 36 | 7
